The supplement of paper PMC7125110
± gives the standard error. This sample holds only a part of the variants without activity.

B1: glmS ribozyme (parent)
chain: AUAAAAGCGCCAGAACUACAGAAAUGUAGUUGACGAGGAGGAGGUUUAUCGAAUUUUCGGCGGAUGCCUCCAAA

Legend:
Details in all cases: with glucosamine-6-phosphate
glucosamine-6-phosphate [1] = variants of: B1; assay: self-cleavage kobs at 640 uM GlcN6P; higher = faster cleavage; RNA array
In short: (§1)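 On sequenced MiSeq chips, barcoded ribozyme variants were made in situ by E. coli RNA polymerase and followed at 37 °C through a hybridised Cy3 probe. Glucosamine-6-phosphate was flowed in at 40 μM to 10 mM in HEPES/KCl/Mg(OAc)2 buffer. Exponential fits to normalised per-tile medians gave kobs, and weighted Michaelis–Menten fits gave kcat and KM.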

glucosamine-6-phosphate [2] = variants of: B1; assay: self-cleavage kobs at 2500 uM GlcN6P; higher = faster cleavage; RNA array
In short: as §1

glucosamine-6-phosphate [3] = variants of: B1; assay: self-cleavage kobs at 10000 uM GlcN6P; higher = faster cleavage; RNA array
In short: as §1

Variant: AUAAAAGCGCCAGAACUACAGAAAUGUAGUUGACGAGGCGGAGGUUUAUCGAAUUUUGGGCGUAAGCCUCGAAA [A39C C58G G63U U65A C71G]
- self-cleavage kobs at 640 uM GlcN6P (glucosamine-6-phosphate [1]): < 1e-05 s⁻¹
- self-cleavage kobs at 2500 uM GlcN6P (glucosamine-6-phosphate [2]): < 1e-05 s⁻¹
- self-cleavage kobs at 10000 uM GlcN6P (glucosamine-6-phosphate [3]): < 1e-05 s⁻¹

Variant: AUAAAAGCGCCAGAACUACAGAAAUGUAGUUGACGAUCAGGAGGUUUAGCGAAUUGUCGGCGGAUGCCUCCAAA [G37U G38C U49G U56G]
- self-cleavage kobs at 640 uM GlcN6P (glucosamine-6-phosphate [1]): < 1e-05 s⁻¹

Variant: AUAAAAGCGCCAGAACUACAGAAAUGUAGUUGACGAGAAGGAGCUUUAUCGAAUUUUCGGCGGAUGUCUCAAAA [G38A G44C C67U C71A]
- self-cleavage kobs at 640 uM GlcN6P (glucosamine-6-phosphate [1]): < 1e-05 s⁻¹
- self-cleavage kobs at 2500 uM GlcN6P (glucosamine-6-phosphate [2]): < 1e-05 s⁻¹

Variant: AUAAAAGCGCCAGAACUACAGAAAUGUAGUUGACGAGUAGGAUGUAUUUCGAAUUUUCGGAGGAUGGCUCCAAA [G38U G43U U46A A48U C61A C67G]
- self-cleavage kobs at 640 uM GlcN6P (glucosamine-6-phosphate [1]): < 1e-05 s⁻¹

Variant: AUAAAAGCGCCAGAACUACAGAAAUGUAGUUGACGAGUAGAAGGUUCAUCGAAUUUUCGGCGGAUGCCUCCAAA [G38U G41A U47C]
- self-cleavage kobs at 640 uM GlcN6P (glucosamine-6-phosphate [1]): < 1e-05 s⁻¹
- self-cleavage kobs at 2500 uM GlcN6P (glucosamine-6-phosphate [2]): < 1e-05 s⁻¹

Variant: AUAAAAGCGCCAGAACUACAGAAAUGUAGUUGACGAGCAGUAGGUUUAUCGAAUUUUCGGCGGAUGUCUCCAAA [G38C G41U C67U]
- self-cleavage kobs at 640 uM GlcN6P (glucosamine-6-phosphate [1]): < 1e-05 s⁻¹

Variant: AUAAAAGCGCCAGAACUACAGAAAUGUAGUUGACGAGCAGGAUGUUUAUCGAAUUUUCGGCGGCUGCCUCCAAA [G38C G43U A64C]
- self-cleavage kobs at 640 uM GlcN6P (glucosamine-6-phosphate [1]): < 1e-05 s⁻¹
- self-cleavage kobs at 2500 uM GlcN6P (glucosamine-6-phosphate [2]): < 1e-05 s⁻¹

Variant: AUAAAAGCGCCAGAACUACAGAAAUGUAGUUGACGAUGAGGAGGUUUAUCGAAUUUUCUGCGAAUGCCUCCAAA [G37U G59U G63A]
- self-cleavage kobs at 640 uM GlcN6P (glucosamine-6-phosphate [1]): < 1e-05 s⁻¹
- self-cleavage kobs at 2500 uM GlcN6P (glucosamine-6-phosphate [2]): < 1e-05 s⁻¹

Variant: AUAAAAGCGCCAGAACUACAGAAAUGUAGUUGACGAUAAGUAGGUUUAACGUAUUUUCUGCGGAUGACUCCAAA [G37U G38A G41U U49A A52U G59U C67A]
- self-cleavage kobs at 640 uM GlcN6P (glucosamine-6-phosphate [1]): < 1e-05 s⁻¹

Variant: AUAAAAGCGCCAGAACUACAGAAAUGUAGUUGACGACGAGGAGGUUUAUCGAAUUUUCGGCCCAUGUCUCCAAA [G37C G62C G63C C67U]
- self-cleavage kobs at 640 uM GlcN6P (glucosamine-6-phosphate [1]): < 1e-05 s⁻¹

Variant: AUAAAAGCGCCAGAACUACAGAAAUGUAGUUGACGAGUAGGAGGUUUAUCGAAUUUUCGGCGGUUGCCUGCAAA [G38U A64U C70G]
- self-cleavage kobs at 640 uM GlcN6P (glucosamine-6-phosphate [1]): 8.06e-05 ± 3.4e-05 s⁻¹

Variant: AUAAAAGCGCCAGAACUACAGAAAUGUAGUUGACGAGAAGGAUGUUUAUCCAAUUUUCGGCGGAUGCCUCCAAA [G38A G43U G51C]
- self-cleavage kobs at 640 uM GlcN6P (glucosamine-6-phosphate [1]): < 1e-05 s⁻¹
- self-cleavage kobs at 2500 uM GlcN6P (glucosamine-6-phosphate [2]): < 1e-05 s⁻¹

Variant: AUAAAAGCGCCAGAACUACAGAAAUGUAGUUGACGACGAGGAGGUUUAUCGAAUUUUCCGCGGAUGCCUCCAAA [G37C G59C]
- self-cleavage kobs at 640 uM GlcN6P (glucosamine-6-phosphate [1]): < 1e-05 s⁻¹
- self-cleavage kobs at 2500 uM GlcN6P (glucosamine-6-phosphate [2]): < 1e-05 s⁻¹
- self-cleavage kobs at 10000 uM GlcN6P (glucosamine-6-phosphate [3]): < 1e-05 s⁻¹

Variant: AUAAAAGCGCCAGAACUACAGAAAUGUAGUUGACGACGAGGAGGUUUAUCGAAUUUUCGGCGGAUGCUGCCAAA [G37C C68U U69G]
- self-cleavage kobs at 640 uM GlcN6P (glucosamine-6-phosphate [1]): 6e-05 ± 2e-05 s⁻¹

Variant: AUAAAAGCGCCAGAACUACAGAAAUGUAGUUGACGAGUAGGAUGUUUAUCGAAUUUUCGGCGGACGCGUCGAAA [G38U G43U U65C C68G C71G]
- self-cleavage kobs at 640 uM GlcN6P (glucosamine-6-phosphate [1]): < 1e-05 s⁻¹

Variant: AUAAAAGCGCCAGAACUACAGAAAUGUAGUUGACGAGAAUGAGGUUUAUCGAAUUUUCGGCGGACGCCUCCAAA [G38A G40U U65C]
- self-cleavage kobs at 640 uM GlcN6P (glucosamine-6-phosphate [1]): < 1e-05 s⁻¹

Variant: AUAAAAGCGCCAGAACUACAGAAAUGUAGUUGACGAGAAGGAGUUUUAUAGAAUUUUCGGCGGAUGCCUCCAAA [G38A G44U C50A]
- self-cleavage kobs at 640 uM GlcN6P (glucosamine-6-phosphate [1]): < 1e-05 s⁻¹

Variant: AUAAAAGCGCCAGAACUACAGAAAUGUAGUUGACGAGAAGGAGGUUUAUCGAAUUUUCGGUGGAUGCUUCCAAA [G38A C61U C68U]
- self-cleavage kobs at 640 uM GlcN6P (glucosamine-6-phosphate [1]): < 1e-05 s⁻¹

Variant: AUAAAAGCGCCAGAACUACAGAAAUGUAGUUGACGAGCAGGGGGUUUAGCGGAUUUUCGGCGCAUGCCUCCAAA [G38C A42G U49G A52G G63C]
- self-cleavage kobs at 640 uM GlcN6P (glucosamine-6-phosphate [1]): < 1e-05 s⁻¹
- self-cleavage kobs at 2500 uM GlcN6P (glucosamine-6-phosphate [2]): < 1e-05 s⁻¹

Variant: AUAAAAGCGCCAGAACUACAGAAAUGUAGUUGACGAGAAUGAAGUUUAUCGCAUUUUCGGCGGAUGCCUCCAAA [G38A G40U G43A A52C]
- self-cleavage kobs at 640 uM GlcN6P (glucosamine-6-phosphate [1]): < 1e-05 s⁻¹

Variant: AUAAAAGCGCCAGAACUACAGAAAUGUAGUUGACGAGAAGGAGGUUUAUCGAAUUUUCGGCUGAUCCCUCCAAA [G38A G62U G66C]
- self-cleavage kobs at 640 uM GlcN6P (glucosamine-6-phosphate [1]): < 1e-05 s⁻¹

Variant: AUAAAAGCGCCAGAACUACAGAAAUGUAGUUGACGACGGGGAGGAUUAACGAAUUUUCGGCGGAUGCCUCCAAA [G37C A39G U45A U49A]
- self-cleavage kobs at 640 uM GlcN6P (glucosamine-6-phosphate [1]): < 1e-05 s⁻¹
- self-cleavage kobs at 2500 uM GlcN6P (glucosamine-6-phosphate [2]): < 1e-05 s⁻¹

Variant: AUAAAAGCGCCAGAACUACAGAAAUGUAGUUGACGAGAAGGAGGUUUCUCGAAUUUUCGGCGGAUGCCUCCAAA [G38A A48C]
- self-cleavage kobs at 640 uM GlcN6P (glucosamine-6-phosphate [1]): < 1e-05 s⁻¹
- self-cleavage kobs at 2500 uM GlcN6P (glucosamine-6-phosphate [2]): < 1e-05 s⁻¹
- self-cleavage kobs at 10000 uM GlcN6P (glucosamine-6-phosphate [3]): < 1e-05 s⁻¹

Variant: AUAAAAGCGCCAGAACUACAGAAAUGUAGUUGACGAGCAGGAGGUUUAUCGAAUUGUUGGCGGAUGCCUCCAAA [G38C U56G C58U]
- self-cleavage kobs at 640 uM GlcN6P (glucosamine-6-phosphate [1]): < 1e-05 s⁻¹

Variant: AUAAAAGCGCCAGAACUACAGAAAUGUAGUUGACGAGCAUGAGGUAUAUCGAAUUUUCGGCGGAUGCCUCCAAA [G38C G40U U46A]
- self-cleavage kobs at 640 uM GlcN6P (glucosamine-6-phosphate [1]): < 1e-05 s⁻¹
